Key:
[1] = CDCA as substrate
[2] = Small-scale biotransformation of CDCA to 7-KLCA with Cd7α-HSDH and NAD(P)H oxidase, HPLC; assay type: biochemical; settings: 10 mM CDCA, NADP^+ regenerated by NAD(P)H oxidase, after 18.5 h
Method: FIG. 5: Biotransfomation of CDCA (10 mM) in aqueous system (KPi, pH 7.0), containing 5 U Cd7α-HSDH and 50 U NOX during 18.5 hours. After 3.5 h and 7 h additional 50 U NOX were added to the reaction. Concentration of CDCA (-∘-CDCA) and 7-KLCA (-⋅-7-KLCA) were determined by HPLC.
HPLC analysis was performed on a Purospher® STAR RP-18 column (Merck, Germany) on a HPLC LC-2010AHT-System (Shimadzu, Japan) at a flow rate of 1 ml/min. The mobile phase consisted of two eluents. Eluent A was distilled water (pH 2.6 adjusted with orthophosphoric acid 85%) and eluent B HPLC-grade acetonitrile. The starting condition for the gradient program was 65% eluent A and 35% eluent B. The system was monitored by UV detector at 200 nm. Totally, 20 μl samples with a bile acid concentration in the range of 1 mg/ml were analyzed. Authentic samples of CDCA, 7-KLCA and UDCA at the same concentration were used as references.
For the biotransformation in a small-scale 10 mM CDCA in KPi-buffer (100 mM, pH 7.0), 0.1 mM NADP^+, 0.5 U mL^−1 Cd7α-HSDH and 5 U mL^−1 NADPH-oxidase were incubated at 25° C. The biotransformation were done in glass vials with a stirring bar in it and a stirrer speed of 500 rpm for 18 hours. Samples were taken periodically and diluted with methanol-water (pH 2.6) (9:1 v/v) for H PLC-analysis. […]

[3] = Coupled one-step conversion of CDCA to UDCA with isolated enzymes, NADP(H) as cofactor; assay type: biochemical; settings: 10 mM CDCA, 100 mM KPi pH 6.0, 25° C., 0.5 mM NADP^+
Method: The enzymatic synthesis of UDCA with isolated enzymes was performed standardized in 100 mM KPi buffer (pH 7.0) at 25° C. The reaction mixtures were magnetically stirred at 500 to 700 rpm. The cofactor concentration was 0.25 mM NAD^+. For the biotransformation with NAD^+ as cofactor, the reaction was performed with […] enzyme, and for the biotransformation with NADP^+ as cofactor the reaction was performed with 0.5 U/ml 7α-HSDH and 1.0 U/ml 7β-HSDH. After pre-determined time intervals, samples were taken and analyzed by means of HPLC.
In a second experiment, the biotransformation was performed in a one-step process with NADP(H) as cofactor. The enzymatic conversion of 10 mM CDCA was performed in 100 mM KPi buffer pH 6.0 at 25° C. with the 7β-HSDH [G39S/R64E] (SEQ ID NO:45) and the Cd7α-HSDH from C. difficile (SEQ ID NO:35) in a one-step process. The cofactor concentration was 0.5 mM NADP^+. For the 7-KLCA reduction, a […] 7β-HSDH from C. aerofaciens was applied and for the CDCA oxidation step the 7α-HSDH from C. difficile was applied. As illustrated a one-step conversion of CDCA in a directly coupled oxidation and reduction reaction with a NADP^+-dependent 7β-HSDH is operable.

[4] = Photometric activity assay of E. coli 7α-HSDH wildtype and mutants (crude extracts); assay type: biochemical; settings: crude extract, substrate CDCA
Method: The reaction mixture contained in a total volume of 1 ml:
880 μl 50 mM potassium phosphate (KPi) buffer, pH 8.0
100 μl 100 mM CDCA (dissolved in 50 mM KPi, pH 8)
10 μl Enzyme solution (in buffer as above, in the range of 2 to 6 U/ml)
10 μl 50 mM NAD^+ or NADP^+ (dissolved in ddH2O)
An increase of extinction was determined at 340 nm over a period of 30 seconds and the activity was expressed as enzyme unit (1 U corresponds to a conversion of 1 μmol NAD(P)H/min). The molar extinction coefficient was 6.22 mM^−1×cm^−1.
The photometric activity assay of the crude extract was performed by means of a UV-1700 spectrophotometer (Shimadzu, Japan) (see method described above under item 1.7). In Table 8, the specific activity values of individual mutants as obtained for NAD^+ and NADP^+ are summarized.

[5] = Coupled one-step conversion of CDCA to UDCA with isolated enzymes, NAD(H) as cofactor; assay type: biochemical; settings: 25 mM CDCA, 100 mM KPi pH 7.0, 25° C., 0.25 mM NAD^+

Row | Molecule | activity with NADP^+ [4] | activity with NAD^+ [4] | also measured
1 | Cd7α-HSDH: NADP+-dependent 7α-hydroxysteroid dehydrogenase from Clostridium difficile (DSM 12056), SEQ ID NO: 34; with N-His-tag SEQ ID NO: 35 (protein, Clostridium difficile) MEKLQGKIAVVTAATKGIGLASAEILAKNGATVYLAARSEELAHEVINKISAEGGCAKFVYFNAREEETFTSMIEEVVKKEGKIDILVNNFGSTNPSLDKDLVTGDTDNFFDTVNTNLKSVYLPCKAAIPHMIKNGKGSIVNISSIGSVLPDLSRIAYCVSKAAINSLTQNIATQYAKDNVRCNAVLPGLIATKAALDNMSPEFIKEFLKHVPLNRIGEPDDIAKAVLFYASDDSSFITGDLLEVAGGFGLPTPQFADNILG |  |  | activity ([1]; 45° C.): 11 U mg^−1; activity (maximum) ([1]; 60° C.): 77 U mg^−1; temperature of maximum activity ([1]; investigated between 15 and 65° C.): 60 °C; conversion of CDCA to 7-KLCA [2]: > 99%; conversion of CDCA to 7-KLCA ([2]; listed as enzyme from C. difficile): < 99%; one-step conversion of CDCA in directly coupled oxidation and reduction [3]: operable
2 | 7α-HSDH [D42G/I43R]: NADP+-dependent double mutant D42G/I43R of E. coli 7α-HSDH, SEQ ID NO: 41 (N-His-Tag) (protein, N-terminal His-tag; 7alpha HSDH E. coli mutant D42G/I43R + N-terminal His-Tag) MGSSHHHHHHSSGLVPRGSHMFNSDNLRLDGKCAIITGAGAGIGKEIAITFATAGASVVVSGRNADAANHVVDEIQQLGGQAFACRCDITSEQELSALADFAISKLGKVDILVNNAGGGGPKPFDMPMADFRRAYELNVFSFFHLSQLVAPEMEKNGGGVILTITSMAAENKNINMTSYASSKAAASHLVRNMAFDLGEKNIRVNGIAPGAILTDALKSVITPEIEQKMLQHTPIRRLGQPQDIANAALFLCSPAASWVSGQILTVSGGGVQELN | 6.3 U/mg | 0.1 U/mg | activity with NADP^+ ([4]; listed as no. 4): about 6.3 U/mg; activity with NAD^+ ([4]; listed as no. 4): only marginal activity
3 | 7α-HSDH [wildtype]: NAD+-dependent 7α-HSDH of E. coli, wildtype, SEQ ID NO: 38 (N-His-Tag) (protein, N-terminal His-tag; E. coli 7alpha HSDH WT + N-terminal His Tag) MGSSHHHHHHSSGLVPRGSHMFNSDNLRLDGKCAIITGAGAGIGKEIAITFATAGASVVVSDINADAANHVVDEIQQLGGQAFACRCDITSEQELSALADFAISKLGKVDILVNNAGGGGPKPFDMPMADFRRAYELNVFSFFHLSQLVAPEMEKNGGGVILTITSMAAENKNINMTSYASSKAAASHLVRNMAFDLGEKNIRVNGIAPGAILTDALKSVITPEIEQKMLQHTPIRRLGQPQDIANAALFLCSPAASWVSGQILTVSGGGVQELN | 0 U/mg | 51.6 U/mg | 
4 | 7β-HSDH [G39E]: NAD(H)-dependent 7β-HSDH mutant G39E from C. aerofaciens, SEQ ID NO:48 (C-His-Tag) (protein, C-terminal His-tag; 7beta-HSDH Mutante [G39E] C. aerofaciens + C-terminal His-Tag) MNLREKYGEWGLILGATEGVGKAFCEKIAAGGMNVVMVERREEKLNVLAGEIRETYGVETKVVRADFSQPGAAETVFAATEGLDMGFMSYVACLHSFGKIQDTPWEKHEAMINVNVVTFLKCFHHYMRIFAAQDRGAVINVSSMTGISSSPWNGQYGAGKAFILKMTEAVACECEGTGVDVEVITLGTTLTPSLLSNLPGGPQGEAVMKIALTPEECVDEAFEKLGKELSVIAGQRNKDSVHDWKANHTEDEYIRYMGSFYRDLEHHHHHH |  |  | one-step conversion of CDCA in directly coupled oxidation and reduction [5]: operable
5 | 7β-HSDH [G39S/R64E]: NADP+-dependent 7β-HSDH double mutant G39S/R64E from C. aerofaciens, SEQ ID NO:45 (protein, 7beta-HSDH Mutant [G39S/R64E] C. aerofaciens + C-terminal His-tag) MNLREKYGEWGLILGATEGVGKAFCEKIAAGGMNVVMVSRREEKLNVLAGEIRETYGVETKVVEADFSQPGAAETVFAATEGLDMGFMSYVACLHSFGKIQDTPWEKHEAMINVNVVTFLKCFHHYMRIFAAQDRGAVINVSSMTGISSSPWNGQYGAGKAFILKMTEAVACECEGTGVDVEVITLGTTLTPSLLSNLPGGPQGEAVMKIALTPEECVDEAFEKLGKELSVIAGQRNKDSVHDWKANHTEDEYIRYMGSFYRDLEHHHHHH |  |  | one-step conversion of CDCA in directly coupled oxidation and reduction [3]: operable
6 | 7α-HSDH [D42A/I43R]: double mutant D42A/I43R of E. coli 7α-HSDH (SEQ ID NO: 37) (protein, listed as Escherichia coli) MFNSDNLRLDGKCAIITGAGAGIGKEIAITFATAGASVVVSARNADAANHVVDEIQQLGGQAFACRCDITSEQELSALADFAISKLGKVDILVNNAGGGGPKPFDMPMADFRRAYELNVFSFFHLSQLVAPEMEKNGGGVILTITSMAAENKNINMTSYASSKAAASHLVRNMAFDLGEKNIRVNGIAPGAILTDALKSVITPEIEQKMLQHTPIRRLGQPQDIANAALFLCSPAASWVSGQILTVSGGGVQELN | 2.1 U/mg | 0 U/mg | 
7 | 7α-HSDH [I43R]: single mutant I43R of E. coli 7α-HSDH (SEQ ID NO: 37) (protein, listed as Escherichia coli) MFNSDNLRLDGKCAIITGAGAGIGKEIAITFATAGASVVVSDRNADAANHVVDEIQQLGGQAFACRCDITSEQELSALADFAISKLGKVDILVNNAGGGGPKPFDMPMADFRRAYELNVFSFFHLSQLVAPEMEKNGGGVILTITSMAAENKNINMTSYASSKAAASHLVRNMAFDLGEKNIRVNGIAPGAILTDALKSVITPEIEQKMLQHTPIRRLGQPQDIANAALFLCSPAASWVSGQILTVSGGGVQELN | 0.4 U/mg | 51.8 U/mg | 
8 | 7α-HSDH [D42G]: single mutant D42G of E. coli 7α-HSDH (SEQ ID NO: 37) (protein, listed as Escherichia coli) MFNSDNLRLDGKCAIITGAGAGIGKEIAITFATAGASVVVSGINADAANHVVDEIQQLGGQAFACRCDITSEQELSALADFAISKLGKVDILVNNAGGGGPKPFDMPMADFRRAYELNVFSFFHLSQLVAPEMEKNGGGVILTITSMAAENKNINMTSYASSKAAASHLVRNMAFDLGEKNIRVNGIAPGAILTDALKSVITPEIEQKMLQHTPIRRLGQPQDIANAALFLCSPAASWVSGQILTVSGGGVQELN | 0.3 U/mg | 0.4 U/mg | 

— patent US11634743B2, “Coupled, self-sufficient biotransformation of chenodeoxcholic acid to ursodeoxycholic acid and novel enzyme mutants applicable in said process” (Pharmazell GmbH, priority 2016, dated 2023)
